From article PMC3286403
Values joined by “and” are separate entries in the source; they are usually repeats but may differ in a detail not shown here. Identical values can stand only once. Like-named read-outs stand apart in the source and are kept apart here.

Legend:
[1] = molecular target: His-tagged HIV-1 integrase Y194A (HIV-1); assay: AlphaScreen or HTRF; HTRF; His-IN 80 nM, GST-LEDGF/p75 or GST-TNPO3 5 nM, anti-GST-Europium Cryptate and anti-His-XL665; 25 mM Hepes pH 7.3, 150 mM NaCl, 2 mM MgCl2, 0.1% BSA, 1 mM DTT; read 2 h after incubation; signal as percent of IN WT ΔF
[2] = molecular target: His6-tagged HIV-1 integrase K188Q (HIV-1); assay: as above
[3] = molecular target: His6-tagged HIV-1 integrase Q168L (HIV-1); assay: as above
[4] = molecular target: His6-tagged HIV-1 integrase W131A (HIV-1); assay: as above
[5] = molecular target: His6-tagged HIV-1 integrase Y194E (HIV-1); assay: as above
[6] = molecular target: untagged HIV-1 integrase W131A (HIV-1); assay: SEC; 2.5 μM untagged IN on Superdex 200 10/300 GL; 50 mM HEPES pH 7.4, 750 mM NaCl, 10% glycerol; calibrated with protein standards; no DNA
[7] = molecular target: untagged HIV-1 integrase Y194E (HIV-1); assay: as above
[8] = molecular target: untagged HIV-1 integrase wild type (HIV-1); assay: as above
[9] = molecular target: His6-tagged HIV-1 integrase Q168L (HIV-1); assay: AlphaScreen or HTRF; HTRF; His-IN 80 nM, GST-LEDGF/p75 or GST-TNPO3 5 nM, anti-GST-Europium Cryptate and anti-His-XL665; 25 mM Hepes pH 7.3, 150 mM NaCl, 2 mM MgCl2, 0.1% BSA, 1 mM DTT; read 2 h after incubation; signal as percent of IN WT ΔF; remark: listed apart in the source
[10] = molecular target: His6-tagged HIV-1 integrase W131A (HIV-1); assay: as above; remark: listed apart in the source
[11] = molecular target: His6-tagged HIV-1 integrase Y194E (HIV-1); assay: as above; remark: listed apart in the source
[12] = molecular target: His6-tagged HIV-1 integrase Y194F (HIV-1); assay: as above

Molecule: GST-LEDGF/p75 full length (from UniProt O75475 1-530) (natural protein)
- percent decrease of binding against IN WT (HTRF) [1]: 27%
- percent decrease of binding against IN WT (HTRF) [2]: 64.9%
- percent of IN WT interaction (HTRF) [3]: 16.3%
- percent of IN WT interaction (HTRF) [4]: 9.3%
- percent decrease of binding against IN WT (HTRF) [5]: 26%

Molecule: untagged HIV-1 integrase W131A (enzyme)
- stoichiometry N [6]: 4 and 2

Molecule: untagged HIV-1 integrase Y194E (enzyme)
- stoichiometry N [7]: 4

Molecule: untagged HIV-1 integrase wild type (enzyme)
- stoichiometry N [8]: 4 and 2

B1: GST-TNPO3 full length (natural protein)
chain: MEGAKPTLQLVYQAVQALYHDPDPSGKERASFWLGELQRSVHAWEISDQLLQIRQDVESCYFAAQTMKMKIQTSFYELPTDSHASLRDSLLTHIQNLKDLSPVIVTQLALAIADLALQMPSWKGCVQTLVEKYSNDVTSLPFLLEILTVLPEEVHSRSLRIGANRRTEIIEDLAFYSSTVVSLLMTCVEKAGTDEKMLMKVFRCLGSWFNLGVLDSNFMANNKLLALLFEVLQQDKTSSNLHEAASDCVCSALYAIENVETNLPLAMQLFQGVLTLETAYHMAVAREDLDKVLNYCRIFTELCETFLEKIVCTPGQGLGDLRTLELLLICAGHPQYEVVEISFNFWYRLGEHLYKTNDEVIHGIFKAYIQRLLHALARHCQLEPDHEGVPEETDDFGEFRMRVSDLVKDLIFLIGSMECFAQLYSTLKEGNPPWEVTEAVLFIMAAIAKSVDPENNPTLVEVLEGVVRLPETVHTAVRYTSIELVGEMSEVVDRNPQFLDPVLGYLMKGLCEKPLASAAAKAIHNICSVCRDHMAQHFNGLLEIARSLDSFLLSPEAAVGLLKGTALVLARLPLDKITECLSELCSVQVMALKKLLSQEPSNGISSDPTVFLDRLAVIFRHTNPIVENGQTHPCQKVIQEIWPVLSETLNKHRADNRIVERCCRCLRFAVRCVGKGSAALLQPLVTQMVNVYHVHQHSCFLYLGSILVDEYGMEEGCRQGLLDMLQALCIPTFQLLEQQNGLQNHPDTVDDLFRLATRFIQRSPVTLLRSQVVIPILQWAIASTTLDHRDANCSVMRFLRDLIHTGVANDHEEDFELRKELIGQVMNQLGQQLVSQLLHTCCFCLPPYTLPDVAEVLWEIMQVDRPTFCRWLENSLKGLPKETTVGAVTVTHKQLTDFHKQVTSAEECKQVCWALRDFTRLFR
- percent of IN WT (HTRF) [9]: 45%
- percent of IN WT (HTRF) [10]: 49%
- percent decrease of binding against IN WT (HTRF) [11]: 23.5%
- percent decrease of binding against IN WT (HTRF) [12]: 14.4%
